This note sets out measurements from publication PMC3401468.

The target of series [1] is T1, XPF-HLD (human, UniProt Q92889 12-672).
T1 sequence: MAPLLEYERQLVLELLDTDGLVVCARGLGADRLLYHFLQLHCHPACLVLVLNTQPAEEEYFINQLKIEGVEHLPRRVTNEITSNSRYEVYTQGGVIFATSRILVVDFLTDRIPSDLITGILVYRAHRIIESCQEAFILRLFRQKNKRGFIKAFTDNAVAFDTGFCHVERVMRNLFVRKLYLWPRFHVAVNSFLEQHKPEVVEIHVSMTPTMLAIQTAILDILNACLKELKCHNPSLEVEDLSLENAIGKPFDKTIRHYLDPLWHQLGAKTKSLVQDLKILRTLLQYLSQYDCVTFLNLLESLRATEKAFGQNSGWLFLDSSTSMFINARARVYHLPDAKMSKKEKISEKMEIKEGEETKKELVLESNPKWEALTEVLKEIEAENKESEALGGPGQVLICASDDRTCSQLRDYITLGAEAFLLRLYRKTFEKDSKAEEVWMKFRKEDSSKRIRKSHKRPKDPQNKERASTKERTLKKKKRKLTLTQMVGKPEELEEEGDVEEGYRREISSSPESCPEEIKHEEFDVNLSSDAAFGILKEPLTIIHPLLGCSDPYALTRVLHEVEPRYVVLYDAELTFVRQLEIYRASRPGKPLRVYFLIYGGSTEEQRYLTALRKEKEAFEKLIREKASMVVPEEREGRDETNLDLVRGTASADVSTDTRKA
Put plainly: fluorescence polarization. (In general: In fluorescence polarisation assays a small probe gives low polarisation when free and higher when bound to something large.)

Series [2] deals with T1, XPF-HLD. Put plainly: fluorescence polarization. The source holds these as a separate data set.
Series [3] deals with T1, XPF-HLD. Put plainly: fluorescence polarization. This is another data set of the same source.
Another series has as its target T2, XPF;ERCC1 (human;human, UniProt Q92889;P07992 12-916;1-297, |).
T2 sequence 1: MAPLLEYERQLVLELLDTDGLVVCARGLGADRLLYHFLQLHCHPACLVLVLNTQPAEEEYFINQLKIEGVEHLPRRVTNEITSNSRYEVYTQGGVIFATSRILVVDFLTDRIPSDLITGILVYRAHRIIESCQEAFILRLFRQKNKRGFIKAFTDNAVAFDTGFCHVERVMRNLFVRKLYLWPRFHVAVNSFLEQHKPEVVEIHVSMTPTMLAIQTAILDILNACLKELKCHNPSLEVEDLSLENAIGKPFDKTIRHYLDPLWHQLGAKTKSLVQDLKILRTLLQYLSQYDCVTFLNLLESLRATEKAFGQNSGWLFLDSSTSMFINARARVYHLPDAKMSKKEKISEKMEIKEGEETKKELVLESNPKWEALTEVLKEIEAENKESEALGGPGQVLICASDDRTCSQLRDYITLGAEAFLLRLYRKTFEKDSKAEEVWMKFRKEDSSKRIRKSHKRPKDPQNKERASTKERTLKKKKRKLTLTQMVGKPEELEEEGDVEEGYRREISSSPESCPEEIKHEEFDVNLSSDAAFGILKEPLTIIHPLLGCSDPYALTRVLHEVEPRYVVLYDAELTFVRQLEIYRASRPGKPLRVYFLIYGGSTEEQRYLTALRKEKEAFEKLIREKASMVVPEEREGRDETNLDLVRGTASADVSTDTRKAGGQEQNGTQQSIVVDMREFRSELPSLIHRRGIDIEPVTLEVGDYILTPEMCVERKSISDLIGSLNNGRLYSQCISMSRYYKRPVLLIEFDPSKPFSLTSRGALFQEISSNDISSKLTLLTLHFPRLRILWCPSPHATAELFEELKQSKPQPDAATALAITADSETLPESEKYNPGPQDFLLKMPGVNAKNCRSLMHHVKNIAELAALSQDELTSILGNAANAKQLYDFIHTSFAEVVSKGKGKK
T2 sequence 2: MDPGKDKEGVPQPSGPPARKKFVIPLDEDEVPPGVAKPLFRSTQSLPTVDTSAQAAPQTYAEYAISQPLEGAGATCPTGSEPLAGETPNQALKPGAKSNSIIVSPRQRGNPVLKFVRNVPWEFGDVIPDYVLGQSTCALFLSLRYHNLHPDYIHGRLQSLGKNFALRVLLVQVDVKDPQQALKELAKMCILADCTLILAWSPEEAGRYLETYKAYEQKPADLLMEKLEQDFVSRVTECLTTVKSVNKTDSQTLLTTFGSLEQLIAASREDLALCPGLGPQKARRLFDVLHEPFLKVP
Put plainly: SPR. In general terms: In SPR one partner is held on a chip, and binding of the other changes the refractive index at the surface.

Numbering of substitutions follows the chain as printed. Like-named read-outs stand apart in the source and are kept apart here.

B1: Stem10-loop20 X=C Y=T (structured_DNA)
DNA: CAGCGCCTGGTTTTTTTTTTTTTTTTTTTTCCAGGCGCTG
Usually Kd stands for the free concentration of one partner at which half of the binding sites on the other are occupied at equilibrium, for simple one-to-one binding. Low readings indicate a tighter complex, high ones a looser complex. B1 showed a Kd with XPF-HLD [1] of 63 nM.

B2: Stem10-loop20 X=T Y=T (structured_DNA)
DNA: B1 DNA with C7T, G34A
Turning to B2, the binding result with XPF-HLD [2] is “binds”.

B3: Stem10-loop20 X=G Y=G (structured_DNA)
DNA: B1 DNA with C7G, T8G, A33C, G34C
B3: the binding result in the series with XPF-HLD [2] was “binds”.

B4: 2T stem-loop duplex (FP) (structured_DNA)
DNA: CAGCGCTCGGTTCCGAGCGCTG
Molecule B4 came in with a Kd with XPF-HLD [3] of 217 nM.

B5: 15-mer single strand (FP) (ssDNA)
DNA: GCGCTCGGCGTTTTT
In the series with XPF-HLD [3], B5 displayed a Kd of 263 nM.

B6: Duplex with 2T loop (stem10-loop2), SPR (structured_DNA)
DNA: CAGCGCTCGGTTCCGAGCGCTG
As to B6, the binding result with XPF;ERCC1 was “no binding”.
